From the DeepSol protein solubility set

Assay: soluble on expression in E. coli; label from the status in PepcDB or PDB records

Row | Sequence | soluble on expression in E. coli
1 | MGSDKIHHHHHHMAAPEKTAGSKGEATQMRDAPALVGSDRQKILRAGFIPLVDASVLIAAAEFGFADREGLILDLVKDVSWANVRDRLAFRQFDIAHMLSPMPVASMLGLGSNPSPTITPFSLGRGGNAITLSTRLFARMKALTGLSETAGALENARALKLVLDDMRARGEAPPTLGMTYPFSSHNYEFRYWLAAGGIHPDHDVKLVVVPPPMTSDALAAGAIDGFCVGAPWNIVAAERGVGRIVAAKQDLWPSAPEKVIGMRPEWAESQQETVGRLLTALDAAASWCDLADNHDALSGALADPRYIGAPQSIIRRVLAGEFSIDSQGNRRVIEKYFTFHGDHANYPRQSQSLWIYSQMIRWGQAELSETGVNAALSAYRPDIYRAALGDGKAPGDADIRIEGQDEGDRFVDGFVFDPADIAGYVNSFAVRTSVPVSAPSGEA | not soluble
2 | MAKGASISGFPEWLPSERVVEQRVIDTLRNVFELNGFIGIETRAVEQGSSLLKKGETSKEIYLLSRLQEVGHESDTPIEDRLGLHFDLTVPLSRYVVEHSGDLAFPFKRWQIQKVWRGERPQEGRFREFVQADIDVIGNGDLPDHYEVELPLVMVSALERLREFGLPKATVHANNRKLSEGFYRGLGLTDIEGVLREIDKLDKIGADEVAKLLVEGCGADEAQARACLELAELTAADGKELSDKFDALCAKHDIASDSDAYVLARQGLDTLAMIVDEAARIRPGSVIADLKIARGLDYYTGSVYETFLDGAAALGSICSGGRYDNLASQGNKKYPGVGLSIGLSRLVSYMLHTAGAHANRVSPASVLVAVWNEADRSASNLIANQLRSRGIAADVAPTAAKLGKQIKYADKLGIPYVWFPADASEEGAQDEVKNIITGDQRPADAQSWEPDTVYAQQTVTVEA | soluble
3 | AGVFNLEGFGPVSRAMGGTGAAFDIGPAAMMENPATLGLMGEGRHFSLGLDVVSTDIKVTNTATGETASSGNHGNNNGPYFAPQTAFVYRQGRYAFGAGIFAEGGLGTQYGGSSFLSRTSNGVDTGLDQFSRLLVLRVPFSAAYHVTDKLTVGASVDAVWTSLNLGTLLDVSQIGTLAGQGRVSGTLVPTLLGVPGLSGGYIDFSRNAPVGGGVQAWGIGGRLGLTYQVTPDTRIGAAYQAKTHVGDLTGQATLSAVSSVAGNIPLKGDVTVRNFQMPAQLTVGISHQFNDQLSVSADYQRVFWSSVMKDMNVGFVQSGSAANLDLSLPQNYRDISVFGIGAEYRYNAKWTFRGGFHYAQEAIPGNMLLAVVPATPTTSLTGGVSYAIGKNDVIDFALSVALRKTLDNASQPNTAVPISVTHSQVNAVIAYQKRFHHHHHH | soluble
4 | MDSGDFSPMQSNFSLGFMSFEDIPEDARTTEMIDKIVFEEDKEYDHTQDSFRYGRVTTGVSYNLVTGKIPKTVFEQVKAKDDENDNVEFEMEHLEDKETAHKTQTFDELYESQMPKYFDYQSNFSDVNGIWTLLFDQNHYEKMSTFELQAAICAALNSKHFMMICVGIDAFNAVTGVEMSAKDRVVFRMALTRAVAGEFQPPLVKVAPKQLTGVSPMKRDISEVTSSIDVLFVPVIGVTDEVENNRFLIVVRVKGT | not soluble
5 | MNGTKQQRRRGDTRQRIQDVALGLFAEQGYEKTSLREIAESLDVTKAALYYHFKTKEEILVSIFEDLSRPLEDLIEWGREQPHTLETKQEIIRRYSEALAGAAPLFRFMQENQATVRDLRIGELFKHRMFGLRDILMDPEADLVDQVRCISALFTLHAGMFVLRDLEGDPEEQRAAVLEVATDLITQAHRGAAGA | not soluble
6 | MGSDKIHHHHHHMSLKTSDVKFKDRIQTQIHDPIMRKAVANAQERIGANRQKMVDELGHWEAWRDHAAQIREHVLNNLDAYLYQLSEKVTANGGQVYFAKTKEDATRYILQVAQANHAKKVVKAKSMVTEEIGMNHVLQQAGIEVIETDLGEYILQLDQDPPSHVVVPAIHKDRYQIRKVLHEKLGYDGPETPEAMTLFIRKKIREDFLSAEVGVTGCNFAVAETGSVCLVTNEGNARMCTTLPKTHIAVMGMERIAPTFEEVDVLITMLARSAVGARLTGYNTWLTGPREAGHVDGPQEFHLVIVDNGRSQILGSAFRDILRCIRCGACINTCPAYRHIGGHGYGSIYPGPIGAVISPLLGGYQDFKELPYACSLCTACDTVCPVHIPLSSLILKHRRVMAESGITPKAEQRFTKLFSYVNSHPMLWKVGMIAGAHAAGWFIKNGKTRIEMGAIGEWTEARDLPDADGESFRSWFKKHQARGKK | not soluble
7 | MNKEAFERLPQEKKKIIETAYFSAVRKEISASQFFGVCKEALSKDQFESLFSSSTAGREQQEEMKTEHLQDIIQYSGVDLKEEAEHIVRETETNINFGEYEEEDVNNHIGSLMNVPLFREFVSRIGNSRRVGISEESFFLLFQVAKRKMLDIVEKMEESSKWRVEYNLSEFIIRIKNDLSRQLWCLEQIEKAEIEKFTIRRGEEEGRKKVKKTIQEREDLVIKKRLSNTVALAALGIQQKSWMSAEDVRVSEESTAFNSIYSPFDEKALERKVVNRTITMKDFLYVLERDRRYSKSVFTIQHYFRRGSA | not soluble
8 | MKANANAFYAINGNSVIDFKESSKAKDVCEFLGRIKEENEYDPIVVLDNSKTHHADITIKKAKQLDITLVFLPPYSPDLNPIEFIWKSVRKEILKEFIESVTQLRDLIKNEYMKLAKSKSFANNWMKIFDEQIKSVMNSLEHHHHHH | not soluble
9 | MALLGPKEQEIVRERLANLTRDVEMVLFTDSSTLIAPGKEPCLYCKETKQLLEELSALSDKLHLVVYDLATPEGREKAGAYKVEAAPTLILREKGSEAINLRYRGIPAGYEFASLLEDIEMLGRDGHGLPENVVQELNDLPEEVVLQVFVTPTCPYCPQAVRTAHRLAYASPKVWGEMIEANEFPALSDRYRIHGVPDTIINHGKERVLGAQPLSQFLQAIRKAVGVRA | soluble
10 | MLNIDNIQSLIDNGEGYNVEFKVRVPSKVRELTEEICAFANADGGYLLIGVDDNGQVVDTNLENDKRSAIQGSISEISPTLHCELYSVNLGDKTVWVIDVPSSKDKPYIFSGSIYVREGANSQKLRTAEEIRSFFQECNKIYFDHIPCHWFNIYTDADAQMIKDFRTEAKLSPSTPRQTNILEHHHHHH | soluble
11 | SAGLGANSDVMVKLDDGHLNNSLRSPVQAGVYFRGHIKGGMRPGKKVLVMGIVDHNPKSFAISLTCGDSEDPPADVAIELKVVFTNQQVFRNSCISGESDEENLAFPYFPFVPDQPFRMEIFCQQPCFRVLVDGHHLFDFYHRIQTLSAIDSIKISGDLQITKLG | soluble
12 | TFDIDLQQYGEKLLQNKIGCVVAIEPQTGEILAFISSPTYDPNLLTGRKYSANYKELEKDPYKPLFNRPLMAMYPPGSIFKLAQAAVALQEGVITDKSRFPCDKTLVNCHNHPSPQDLRGAIQWSCNPYFYMVYKKMISQDKNPNKFKDTEINFDEWRHNMLTLGFGQKMLVDLPSSKSGNIPSNAYYDKIYGDLHWKFSTIYSLSIGQGEINVVPIQMANLAALIANKGWYITPHFIKSIGKDGHILEEYKNKHVTSVEPKYFEPIIDGMEQVVLGGTAYWLKIKDIDICGKTGTAENPHGDDHSVYIAFAPKKEPKIAIAVYVENAGFGAMTAAPIAHLMIEKYLKDTITRKPLEDMILNKNLLHKVKVKP | not soluble
13 | DLTGKSIVGYRISGGLDIPIGYGLYVNPSLAFHSKGMKTNLEGVALGALGLNSSLKVKTHYIEIPVHLGYRLSLLNLVSVAVQAGPYFSYAIKGDGTVVRKDGQETTFDIYKDGLKEMINAKRFDVGLGAAAMVGYSNFYLLIGADFGLINTVKDIKPETKNLEATLKNTSFHVGLGIRL | not soluble
14 | MDLSQGPVRAAQAAPQVLCTASVHHDHPHAIETLVEALGPVELELILLMASPQTDIPALLARAAAVLPGTRIVGCTTAGEISAAGYTEGEIVAIGMPRAYFKAQTMLIDDLTDYDAQAIIDRMIQTRNDLAAARPEWGHEFNFLLIDGLSTLEDRLVSDLAMGLGPVPLFGGSAGDGERFGTTFVFHEGRAHGNAAVLMQVRTRCPIQVFKTDHLIPTEKRMVVTGADPDRRLVHEINAEPAAREYARVLGKDPEQLTTFTFAAHPVVVRIGGQHHVRSIQRVAENGDLVFFSAIDEGLVLTLAEARDMREHLREELGRLAADGPPAVILGCDCLLRRMEAQQKQVLGALSDILRENRVVGFSTYGEQFNSMHVNQTLTGVAIYPPDDM | soluble
15 | MRDERLSKIISMFQAHIRGYLIRKAYKKLQDQRIGLSVIQRNIRKWLVLRNWQWWKLYSKVKPLL | soluble
